Data as given in article PMC9255381.

Columns and labels:
Assay in all cases: BLI
[1] = target: vWF-A1 of D. marsupialis (D. marsupialis (Didelphis))
[2] = target: vWF-A1 of Didelphis virginiana (Didelphis virginiana)
[3] = target: vWF-A1 of D. albiventus (D. albiventus (Didelphis))
[4] = target: vWF-A1 of P. quica (P. quica (Philander))
[5] = target: vWF-A1 of Monodelphis emiliae (Monodelphis emiliae)
[6] = target: vWF-A1 of Monodelphis domestica (Monodelphis domestica)
[7] = target: vWF-A1 of C. minimus (C. minimus (Chironectes))
[8] = target: vWF-A1 of Lutreolina crassicaudata (Lutreolina crassicaudata)
[9] = target: vWF-A1 of D. aurita (made by site-directed mutagenesis of the D. marsupialis construct) (D. aurita (Didelphis))

botrocetin (isoform A) (natural protein)
fold reduction of binding affinity against human vWF [1]: > 8 fold | fold reduction of binding affinity against human vWF [2]: > 8 fold

botrocetin (isoform B) (natural protein)
fold reduction of binding affinity against human vWF [1]: > 8 fold | fold reduction of binding affinity against human vWF [3]: > 8 fold | fold reduction of binding affinity against human vWF [4]: > 8 fold | fold reduction of binding affinity against human vWF [5]: > 8 fold | fold reduction of binding affinity against human vWF [2]: > 8 fold | fold reduction of binding affinity against human vWF [6]: > 8 fold | fold reduction of binding affinity against human vWF [7]: > 8 fold | fold reduction of binding affinity against human vWF [8]: > 8 fold | fold reduction of binding affinity against human vWF [9]: 8 fold
